Experiments:
human basophils = assay: Basophil histamine release; assay type: cell-based; details: added simultaneously with anti-IgE 0.01 μg/ml
Description: Basophils were obtained at low purity by dextran sedimentation of erythrocytes in EDTA-anti-coagulated peripheral venous blood, at slightly enriched percentages from mononuclear cell layers of density gradient Percoll centrifugation preparations, and at high purity (>70%) from leukophoresis packs following clutriation and density gradient centrifugation. In the assays, polyclonal goat anti-human IgE and ICAM-R monoclonals antibodies ICR-1.1, ICR-2.1, ICR-4.2 and ICR-8.1 were used alone or in combination. The […] was used to induce histamine release which was quantitated using an automated fluorometric assay after a 45 minute incubation with secretagogue. LTC4 production was measured by radioimmunoassay as previously described in Schleimer et al., J. Immunol., 143:1310-1317 (1989), while IL-4 in cell supernatants was assayed using the IL-4 Quantikine ELSA kit (R&D Systems, Minneapolis, Minn.). Basophil adhesion to unstimulated or IL-1 treated monolayers of human umbilical vein endothelial cells was examined as previously described in Bochner et al., J. Clin. Invest., 81: 1355-1360 (1988) and Bochner et al., J. Immunol., 142: 3180-3186 (1989), in the presence or absence of ICR-2.1 monoclonal antibody. […]

[1] = tested on: Fraction C cells (quiescent CD3 positive PBL); assay: IL-2 production by T lymphocytes after prepulse on antibody; assay type: cell-based, human; details: 18 hours prepulse on immobilized antibody, then anti-CD3 OKT3
Method: Human PBL were obtained by Ficoll-Hypaque centrifugation of whole peripheral blood. Adherent cells were depleted by incubation on plastic and nonadherent cells were subjected to discontinuous centrifugation on Percoll gradients to further separate subsets of lymphocytes into medium buoyant density (fraction B) and high buoyant density (fraction C) cell populations. Prior to cell addition, wells were coated with monoclonal antibodies by addition of 0.1 ml each antibody at 5 ug/ml in PBS per microtiter well. Following antibody addition, all wells were incubated overnight at 4 degrees and each well was washed free of unbound antibody by PBS rinsing prior to addition of cells. Each cell fraction was then incubated for 18 hours on either ICR-1.1, ICR-4.2 or control antibodies to human major Histocompatibility Complex Class I (MHC Class I). For these experiments 2×10^5 cells per well were added in a volume of 0.2 ml RPMI-1640 containing 10% FCS to individual wells of a 96 well flat bottom microtiter plate (Costar, Cambridge, Mass.). After 18-20 hours incubation at 37° C., the cells were collected from the microtiter wells and washed twice in RPMI-1640 media containing 10% FCS and adjusted to 1×10^6 per ml in RPMI-1640 containing 10% FCS. […]

CEM cells = assay: Detergent resistance (cytoskeleton association) assay, CEM; assay type: cell-based, human
Method: PBL or washed CEM cell suspensions ([…]) were dispensed into Falcon 12×75 mm tubes in ice-cold PBS-5% FBS, pelleted, and resuspended in 50 μl of FITC-conjugated anti-ICAM-R monoclonal antibody 26E3D-1 or 26I10E-2 adjusted to saturating concentration in the same buffer. Antibody binding was permitted to proceed for 30 minutes on ice, afterwhich unbound antibody was removed by pelleting cells which had first been resuspended in 1 ml of […] through an underlaid cushion (0.7 ml) of neat (undiluted) FBS.
For groups stained with FITC-conjugated monoclonal antibody only, the 1 ml suspension was divided into two equal parts, each of which was separately underlaid with FBS, centrifuged, and the supernatant removed by aspiration. Cell pellets were then resuspended in 200 ul of control buffer (13 mM Tris pH 8.0, 150 mM NaCl, 2 mM MgCl2, 2 mM EGTA, 2% FBS, 2.5 ug/ml aprotinin, 1 mM PMSF, 10 mM iodoacetamide) or detergent buffer [0.5% NP-40 (v/v) (US Biochemical, Cleveland, Ohio) in control buffer] and held for 20 minutes at room temperature, or overnight at 4° C., prior to FACS analysis. For groups in which cell surface-bound monoclonal antibody was crosslinked with secondary antibodies, following the first antibody staining step, washed cell pellets were resuspended in 50 ul of FITC-goat anti-mouse IgG (Sigma) diluted 1:100 in PBS-5% FCS and incubated for 30 minutes on ice. […]

PBMC = assay: Anti-CD3 stimulated PBMC aggregation; assay type: cell-based, human; details: immobilized antibody

Molecule | anti-IgE-induced histamine release (human basophils) | IL-2 produced relative to prepulse on negative control antibodies [1] | greater increase in detergent resistance, crosslinked antibody (CEM cells; CEM) | ICAM-R association with cytoskeleton (detergent resistance), antibody alone (CEM cells; FITC-conjugated antibody, similar in PBL) | inhibition of anti-CD3 stimulated aggregation (PBMC)
ICR-8.1: anti-ICAM-R monoclonal antibody, IgG1, domain 1, ATCC HB 11232 (antibody, V domains shown) VH: EIQLQQTGPELVKPGASVKISCKASGYSFTDCIILWVKQSHGKGLEWIGKINPYFGTTTYNLKFKGKATLTVDKSSSTAHMQLNSLTSEDSAVYYCARKEAYPDAMDYWGQGTSVTVSS VL: DAVMTQTPLSLPVSLGDQASISCRSSQSLVHSNGDTYLHWYLQKPGQSPQLLIYKVSNRFSGVPDRFSGSGSGTDFTLKLSRVEAEDLGVYFCSQSTHVPYTFGGGTKLEIK | neither ICR-8.1 nor the domain 2-specific monoclonal antibody ICR-4.2 had any significant potentiating activity | – | – | – | –
ICR-1.1: anti-ICAM-R monoclonal antibody, IgG2a, domain 1, ATCC HB 11053 (antibody, V domains shown) VH: QVQLQQSGAELAKPGASVKMSCKASGYTFTVYWMHWVKQRPGQGLEWIGYINPNTDYTEYNQRFQDKATLTADKSSSTAYMQLSSLTSEDSAVYYCARWGGNSYGLDYWGQGTSVTVSS VL: QIVLTQSPALMSASPGEKVTMTCSASSSVSYIYWYQQKPRSSPKPWIYLTSNLASGVPARFSGSGSGASYSLTISIMEAEDAATYYCQQWKSIPLTFGAGTKLELK | – | less than 50% | 2-3 fold | negligible | ~100%

Source: US20040248211A1, “ICAM-related protein” (priority 1992, published 2004)
